# Results as given in the nanobody polyreactivity screen of Harvey et al. (2022).
# Test: yeast display, Sf9 membrane polyspecificity reagent, FACS + sequencing; frameworks hold sequencing errors
# Summary of the method: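 Synthetic nanobody libraries on Saccharomyces cerevisiae BJ5465 were galactose-induced for 36–48 hours, stained 1 hour at 4 °C with 10% biotinylated, detergent-solubilized Sf9 membrane reagent and enriched on streptavidin microbeads. FACS then separated cells into low and high (top ~1%) gates by anti-HA (expression) and streptavidin (reagent binding) fluorescence. Genes were colony-PCR amplified, MiSeq 2 × 250 sequenced and CDR-length filtered. A clone's polyreactivity label is that of its gate of origin.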
row,Sequence,polyreactivity (PSR sort gate)
1,QVQLVESGGGLVQAGGSLRLSCAASGRTFYPYAMGWYRQAPGKERELVAAIRSSGGTTYYADSVKGRFTISRDNAKNTVYLQMNSLKPEDTAVYYCAAYVDRQGGYYWGQGTQVTVSS,high polyreactivity
2,QVQLVESGGGLVQAGGSLRLSCAASGRTFYPYAMGWYRQAPGKERELVAAISSSGGSTYYADSVKGRFTISRDNAKNTVYLQMNSLKPEDTAVYYCAAAVYLQYLDDPTYGYWGQGTQVTVSS,high polyreactivity
3,QVQLVESGGGLVQAGGSLRLSCAASGRTFYPYAMGWYRQAPGKERELVAAITISVGSTYYADSVKGRFTISRDNAKNTVYLQMNSLNPEDTAVYYCAAANTPEYDYWGQGTQVTVSS,low polyreactivity
4,QVQLVESGGGLVQAGGSLRLSCAASGRTFYPYAMGWYRQAPGKERELVARISRGGRTNYADSVKGRFTISRDNAKNTVYLQMNSLKPEDTAVYYCAADYYGSYFITEDYWGQGTQVTVSS,low polyreactivity
5,QVQLVESGGGLVQAGGSLRLSCAASGRTFYPYARGWYREAPGKERELVAAISSNGVLTYYADSVKGRFTISRDNAKKSVYLQMNSLKPEDTAVYYCAARKPYVYHLDSWGQGTQVTVSS,high polyreactivity
6,QVQLVESGGGLVQAGGSLRLSCAASGRTFYRKAMGWYIQAPGKEREFVAVISVSGGSTYYADSVKGRFTISRDNAKITVYLQMNSLKPEDTAVYYCAKRGPVRKTAYDYWGQGTQVTVSS,low polyreactivity
7,QVQLVESGGGLVQAGGSLRLSCAASGRTFYRNAMGWYIQAPGKERELVAAITWSGVSTYYADSVKGRFTISRDNAKNTVYLQMNSLKPEDTAVYYCARGRVLRNGHYFQLRNYDYWGQGTQVTVSS,high polyreactivity
8,QVQLVESGGGLVQAGGSLRLSCAASGRTFYRNAMGWYRQAPGIERELVAVISQRGGRTFYADSVKGRFTISRDNAKNTVYLQMNSLKPEDTAVYYCAAPTQSYAHQGFGYWGQGTQVTVSS,high polyreactivity
9,QVQLVESGGGLVQAGGSLRLSCAASGRTFYRNAMGWYRQAPGKERELVAAITTSGGRTYYADSVKGRFTISRDNAKNTVYLQMNSLKPEDTAVYYCNAVYYGRTYASGYDYWGQGTQVTVSS,high polyreactivity
10,QVQLVESGGGLVQAGGSLRLSCAASGRTFYRNAMGWYRQAPGKERELVATINSGGSTHYADSVKGRFTISRDNAKNSVYLQMNSLKPEDTAVYYCAARSPSYRGSLSYYWGHGTQVTVSS,high polyreactivity
11,QVQLVESGGGLVQAGGSLRLSCAASGRTFYRNAMGWYRQAPGKERELVATITRRGGSTYYADSVKGRFTISRDNAKNTVYLQMISLKPEDTAVYYCAAGSKDLYRPYDYWGQGTQVTVSS,high polyreactivity
12,QVQLVESGGGLVQAGGSLRLSCAASGRTFYRNAMGWYRQAPGKERELVATITRRGGSTYYADSVKGRFTISRDNAKNTVYLQMNSLKPEDTAVYYCAAGSKDLYRPYDYWGQGTQVTVSS,high polyreactivity
13,QVQLVESGGGLVQAGGSLRLSCAASGRTFYRNDMVWYRQSPGKERELVARITSGGSTNYADSVKGRFTISRDNAKNTVYLQMNSLKPEDTGVYYCAAVSRYYPYGYWGQGTQVTVSS,high polyreactivity
14,QVQLVESGGGLVQAGGSLRLSCAASGRTFYRYAMGWYRHAPGKERELVASITRGTSTNYADSVKGRFTISRDNAKNTVYLQMNSLKPEDTAVYYCNRRIFGGQRMYYWGQGTQVTVSS,high polyreactivity
15,QVQLVESGGGLVQAGGSLRLSCAASGRTFYRYAMGWYRQAPGKEREFVAAISRCGGSTYYADSVKGRFTISRDNAKNTVFLQMNRLKPEDTGVYYCNADTRAGGFYTPYGRDYWGQGSQVTVSS,high polyreactivity
16,QVQLVESGGGLVQAGGSLRLSCAASGRTFYRYAMGWYRQAPGKEREFVARITTSGGSTYYADSVKGRFTISRDNAKNTVYLEMNSLKPEDTAVYYCAASAPYIYYWGQGTQVTVSS,high polyreactivity

row,Sequence,polyreactivity (PSR sort gate)
1,QVQLVESGGGLVQAGGSLRLSCAASGRTFYRYAMGWYRQAPGKEREFVARITTSGGSTYYADSVKGRFTISRDNAKNTVYLQMNSLKPDDTAVYYCNASGVTYAFLRFDYWGQGTQVTVSS,high polyreactivity
2,QVQLVESGGGLVQAGGSLRLSCAASGRTFYRYAMGWYRQAPGKERELFAAISGSGTSTSYADSVKGRFTISRDNAKNTVYLQLNSLKPDDTAVYYCAATYYVYYYSRYYYWGQGTQVTVSS,high polyreactivity
3,QVQLVESGGGLVQAGGSLRLSCAASGRTFYRYAMGWYRQAPGKERELVAAISGSGTSTSYADSVKGRFTISRDNAKNTVYLQMNSLKPEDTAVYYCAATYYVYYYSRYYYWGQGTQVTVSS,high polyreactivity
4,QVQLVESGGGLVQAGGSLRLSCAASGRTFYRYAMGWYRQAPGKERELVASITRDGRTNYADSVKGRFTISRDNAKNTVYLQMNSLKPEDTAVYYCNAKHKITHSSSDYWGQGTQVTVSS,high polyreactivity
5,QVQLVESGGGLVQAGGSLRLSCAASGRTFYRYAMGWYRQAPGKERELVATISRSGGSTYYADSVKGRFTISRDNAKNTVYLQMNSLKPEDTAVFYCNAEGYPWGFYTYDYWGQGTQVTVSS,low polyreactivity
6,QVQLVESGGGLVQAGGSLRLSCAASGRTFYRYAMGWYRQAPGKERELVAVITSGSRTKYADSVKGRFTISRDNAKNTVYLQMNSLKPEDTAVYYCNAYGVRYRQAFVRYNYWGQGTQVTVSS,high polyreactivity
7,QVQLVESGGGLVQAGGSLRLSCAASGRTFYRYAMGWYRQAPGKESELVAAISSSGGSTYYADSVKGRFTISRDNAKNTVYFQMNSLKPEDTAVYDCADQYFLFTTPYRYAPRMGYWGQGTQVTLSS,high polyreactivity
8,QVQLVESGGGLVQAGGSLRLSCAASGRTFYRYGMGWYRQAPGKEREFVAAITRSGDSTYADSVKGRFTISRDNAKITVYLQMNSLKPEDTAVYYCAKVFLRQYAYRYYYWGQGTQVTVSS,high polyreactivity
9,QVQLVESGGGLVQAGGSLRLSCAASGRTFYRYVMGWYRQATGKERELDADISRRGGRTYYADSVKGRFTISRDNAKNTVYLQMNSLKPEDTAVYYCAAESKYATSSPRRDYWGQGTQVTVSS,high polyreactivity
10,QVQLVESGGGLVQAGGSLRLSCAASGRTFYSNAMGWYRQAAGKERELVAAISYNDGSTYYADSVKGRFTITRDNAKNTVYLQMNSLKPEDTAVYACNADVGAWAWYTRYDYWGQGTQVTVSS,low polyreactivity
11,QVQLVESGGGLVQAGGSLRLSCAASGRTFYSNAMGWYRQAPGKERELVAAIRQSGGSTYYADSVKGRFTISRDNEKNSVYLQMNSLTPEDTAVYYCATGRHDSYKGSLYYYWGQGTQVTVSS,high polyreactivity
12,QVQLVESGGGLVQAGGSLRLSCAASGRTFYSNAMGWYRQAPGKERELVAAISRSGGTTYYADSVKGRFTISRDNAKNTVYLQMNSLKPEDTAVYYCNTLRYGTTGKYDYWGQGTQVTVSS,high polyreactivity
13,QVQLVESGGGLVQAGGSLRLSCAASGRTFYSYAMGWYRQAPGKERELVAAISASGGRTYYADSVKGRFTISRDNAKNTVYLQMNSLKPEDTAVYYCAAYPWYRMWGQGTQVTVSS,high polyreactivity
14,QVQLVESGGGLVQAGGSLRLSCAASGRTFYSYAMGWYRQAPGKERELVAAISRGGNTYYADSVKGRFTISRDNAKNTVSLQMNSLNPEDTAVYYCAVVRVTYYASIYHRGYDYWGQGTQVTVSS,low polyreactivity
15,QVQLVESGGGLVQAGGSLRLSCAASGRTFYSYAMGWYRQAPGTEREFVAAINWSGTSTYADSVKGRFTISRDNAKNTVYLQMNSLKPEDTAVYYCAKTYRTLVRYWGQPFGYWGQGTQVTVSS,high polyreactivity
